According to patent US20210205445A1:

Target: Dectin-2 on murine bone marrow-derived dendritic cells (mouse) (UniProt Q9JKF4)
Test: cell-based or functional assay

Chain of UniProt Q9JKF4 (Q9JKF4 whole entry): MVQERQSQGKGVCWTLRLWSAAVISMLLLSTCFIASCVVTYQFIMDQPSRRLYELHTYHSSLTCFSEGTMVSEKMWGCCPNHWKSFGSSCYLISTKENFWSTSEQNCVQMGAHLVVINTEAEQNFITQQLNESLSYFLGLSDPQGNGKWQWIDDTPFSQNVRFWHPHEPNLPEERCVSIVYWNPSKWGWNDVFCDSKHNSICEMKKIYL

Q: For “recombinant Bl-Eng2 (Blastomyces dermatitidis Eng2 expressed in Pichia pastoris, C-terminal Myc-6xHis tag) (ligand)”, which Ligand induced IL-6 production by murine BMDC, against Furfurman, Man-Lam and MP98 is on record?
A: > 100 fold
